± gives the uncertainty stated by the source.
B1: Ankyrin repeat and SAM domain-containing protein 6, residues 774 to 836; numbered along this chain, Q68DC2 (parent)
chain: DEDELTGILKKLSLEKYQPIFEEQEVDMEAFLTLTDGDLKELGIKTDGSRQQILAAISELNAG

Variants of: B1
Experiment: abundance fitness (aPCA) (normalised: wild type 0, dead -1); higher = more abundant; growth selection in yeast, the domain comes from the species named
Details: Homo sapiens

Row | Variant | abundance fitness
1 | DEDELTGILKKLSLEKYQPIFEEQEVDQEAFLTLTDGDLKELGIKTDGSRQQILAAISELNAG [M28Q] | -0.29 ± 0.073
2 | DEDELTGILKKLSLEKYQPIFEEQEVDFEAFLTLTDGDLKELGIKTDGSRQQILAAISELNAG [M28F] | -0.132 ± 0.07
3 | DEDELTGILKKLSLEKYQPIFEEQEVDHEAFLTLTDGDLKELGIKTDGSRQQILAAISELNAG [M28H] | -0.218 ± 0.099
4 | DEDELTGILKKLSLEKYQPIFEEQEVDEEAFLTLTDGDLKELGIKTDGSRQQILAAISELNAG [M28E] | -0.437 ± 0.097
5 | DEDELTGILKKLSLEKYQPIFEEQEVDAEAFLTLTDGDLKELGIKTDGSRQQILAAISELNAG [M28A] | -0.055 ± 0.056
6 | DEDELTGILKKLSLEKYQPIFEEQEVDGEAFLTLTDGDLKELGIKTDGSRQQILAAISELNAG [M28G] | -0.213 ± 0.043
7 | DEDELTGILKKLSLEKYQPIFEEQEVDREAFLTLTDGDLKELGIKTDGSRQQILAAISELNAG [M28R] | -0.159 ± 0.039
8 | DEDELTGILKKLSLEKYQPIFEEQEVDNEAFLTLTDGDLKELGIKTDGSRQQILAAISELNAG [M28N] | -0.315 ± 0.11
9 | DEDELTGILKKLSLEKYQPIFEEQEVDPEAFLTLTDGDLKELGIKTDGSRQQILAAISELNAG [M28P] | -0.168 ± 0.055
10 | DEDELTGILKKLSLEKYQPIFEEQEVDCEAFLTLTDGDLKELGIKTDGSRQQILAAISELNAG [M28C] | -0.319 ± 0.072
11 | DEDELTGILKKLSLEKYQPIFEEQEVDIEAFLTLTDGDLKELGIKTDGSRQQILAAISELNAG [M28I] | -0.202 ± 0.063
12 | DEDELTGILKKLSLEKYQPIFEEQEVDLEAFLTLTDGDLKELGIKTDGSRQQILAAISELNAG [M28L] | -0.155 ± 0.04
13 | DEDELTGILKKLSLEKYQPIFEEQEVDKEAFLTLTDGDLKELGIKTDGSRQQILAAISELNAG [M28K] | -0.025 ± 0.061
14 | DEDELTGILKKLSLEKYQPIFEEQEVDDEAFLTLTDGDLKELGIKTDGSRQQILAAISELNAG [M28D] | -0.466 ± 0.097
15 | DEDELTGILKKLSLEKYQPIFEEQEGDMEAFLTLTDGDLKELGIKTDGSRQQILAAISELNAG [V26G] | -0.539 ± 0.041
16 | DEDELTGILKKLSLEKYQPIFEEQEWDMEAFLTLTDGDLKELGIKTDGSRQQILAAISELNAG [V26W] | -0.405 ± 0.047
17 | DEDELTGILKKLSLEKYQPIFEEQEIDMEAFLTLTDGDLKELGIKTDGSRQQILAAISELNAG [V26I] | -0.056 ± 0.066
18 | DEDELTGILKKLSLEKYQPIFEEQELDMEAFLTLTDGDLKELGIKTDGSRQQILAAISELNAG [V26L] | -0.145 ± 0.038
19 | DEDELTGILKKLSLEKYQPIFEEQEYDMEAFLTLTDGDLKELGIKTDGSRQQILAAISELNAG [V26Y] | -0.327 ± 0.099
20 | DEDELTGILKKLSLEKYQPIFEEQEEDMEAFLTLTDGDLKELGIKTDGSRQQILAAISELNAG [V26E] | -0.532 ± 0.071
21 | DEDELTGILKKLSLEKYQPIFEEQEDDMEAFLTLTDGDLKELGIKTDGSRQQILAAISELNAG [V26D] | -0.821 ± 0.14

Row | Variant | abundance fitness
22 | DEDELTGILKKLSLEKYQPIFEEQERDMEAFLTLTDGDLKELGIKTDGSRQQILAAISELNAG [V26R] | -0.588 ± 0.048
23 | DEDELTGILKKLSLEKYQPIFEEQETDMEAFLTLTDGDLKELGIKTDGSRQQILAAISELNAG [V26T] | -0.479 ± 0.081
24 | DEDELTGILKKLSLEKYQPIFEEQEFDMEAFLTLTDGDLKELGIKTDGSRQQILAAISELNAG [V26F] | -0.177 ± 0.082
25 | DEDELTGILKKLSLEKYQPIFEEQECDMEAFLTLTDGDLKELGIKTDGSRQQILAAISELNAG [V26C] | -0.353 ± 0.06
26 | DEDELTGILKKLSLEKYQPIFEEQEKDMEAFLTLTDGDLKELGIKTDGSRQQILAAISELNAG [V26K] | -0.425 ± 0.063
27 | DEDELTGILKKLSLEKYQPIFEEQENDMEAFLTLTDGDLKELGIKTDGSRQQILAAISELNAG [V26N] | -0.664 ± 0.11
28 | DEDELTGILKKLSLEKYQPIFEEQEHDMEAFLTLTDGDLKELGIKTDGSRQQILAAISELNAG [V26H] | -0.74 ± 0.097
29 | DEDELTGILKKLSLEKYQPIFEEQESDMEAFLTLTDGDLKELGIKTDGSRQQILAAISELNAG [V26S] | -0.649 ± 0.052
30 | DEDELTGILKKLSLEKYQPIFEEQEQDMEAFLTLTDGDLKELGIKTDGSRQQILAAISELNAG [V26Q] | -0.589 ± 0.061
31 | DEDELTGILKKLSLEKYQPIFEEQEADMEAFLTLTDGDLKELGIKTDGSRQQILAAISELNAG [V26A] | -0.542 ± 0.049
32 | DEDELTGILKKLSLEKYQPIFEEQEMDMEAFLTLTDGDLKELGIKTDGSRQQILAAISELNAG [V26M] | -0.024 ± 0.07
33 | DEDELTGILKKLSLEKYQPIFEEYEVDMEAFLTLTDGDLKELGIKTDGSRQQILAAISELNAG [Q24Y] | -0.112 ± 0.11
34 | DEDELTGILKKLSLEKYQPIFEEWEVDMEAFLTLTDGDLKELGIKTDGSRQQILAAISELNAG [Q24W] | -0.458 ± 0.081
35 | DEDELTGILKKLSLEKYQPIFEETEVDMEAFLTLTDGDLKELGIKTDGSRQQILAAISELNAG [Q24T] | -0.257 ± 0.062
36 | DEDELTGILKKLSLEKYQPIFEEVEVDMEAFLTLTDGDLKELGIKTDGSRQQILAAISELNAG [Q24V] | -0.442 ± 0.042
37 | DEDELTGILKKLSLEKYQPIFEEIEVDMEAFLTLTDGDLKELGIKTDGSRQQILAAISELNAG [Q24I] | -0.47 ± 0.11
38 | DEDELTGILKKLSLEKYQPIFEEFEVDMEAFLTLTDGDLKELGIKTDGSRQQILAAISELNAG [Q24F] | -0.25 ± 0.11
39 | DEDELTGILKKLSLEKYQPIFEEHEVDMEAFLTLTDGDLKELGIKTDGSRQQILAAISELNAG [Q24H] | -0.261 ± 0.12
40 | DEDELTGILKKLSLEKYQPIFEESEVDMEAFLTLTDGDLKELGIKTDGSRQQILAAISELNAG [Q24S] | -0.033 ± 0.039
41 | DEDELTGILKKLSLEKYQPIFEEAEVDMEAFLTLTDGDLKELGIKTDGSRQQILAAISELNAG [Q24A] | -0.04 ± 0.041
42 | DEDELTGILKKLSLEKYQPIFEEPEVDMEAFLTLTDGDLKELGIKTDGSRQQILAAISELNAG [Q24P] | -0.925 ± 0.11
